For experiment [1], the target named is phosphorylated SARS-CoV-2 N construct pN.1-238 (SARS-CoV-2) (UniProt P0DTC9). The experiment is described as follows: SEC-MALS.
The target in experiment [2] is phosphorylated SARS-CoV-2 N construct pN.1-211 (SARS-CoV-2) (UniProt P0DTC9). The experiment is described as follows: SEC; observed qualitatively; Figure 6(C) and data not shown.

In experiment [1], “untagged full-length human 14-3-3γ (from UniProt P61981 1-247) (natural protein)” displayed a stoichiometry N (14-3-3γ chains per pN.1-238 chain (2:1)) of 2. The substance further gave a stoichiometry N (14-3-3γ chains per pN.1-211 chain (2:1)) in experiment [2] of 2.
